In patent US20240279325A1 (Chugai, published 2024):

Assays:
[1] = molecular target: T1, human FcγRIIa type H (allotype H131) extracellular domain with C-terminal His tag (human, UniProt P12318 34-217); test: SPR (Biacore), antibody captured, FcγR analyte
T1 construct: extracellular domain; also called FcγRIIaH; not shown: His tag at the C terminus
T1 sequence (looked up): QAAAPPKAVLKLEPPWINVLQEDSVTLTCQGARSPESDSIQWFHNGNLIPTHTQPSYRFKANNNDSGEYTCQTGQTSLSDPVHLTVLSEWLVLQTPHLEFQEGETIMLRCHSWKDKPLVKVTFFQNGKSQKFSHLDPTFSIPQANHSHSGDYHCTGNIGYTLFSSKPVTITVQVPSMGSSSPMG

[2] = molecular target: T2, FcγRIIa type R (allotype R131) extracellular domain with C-terminal His tag (human, UniProt P12318 34-217); test: SPR; KD of IL6R-B3/IL6R-L divided by KD of the variant
T2 construct: extracellular domain; also called FcγRIIaR; FcγRIIa R type
T2 sequence (looked up): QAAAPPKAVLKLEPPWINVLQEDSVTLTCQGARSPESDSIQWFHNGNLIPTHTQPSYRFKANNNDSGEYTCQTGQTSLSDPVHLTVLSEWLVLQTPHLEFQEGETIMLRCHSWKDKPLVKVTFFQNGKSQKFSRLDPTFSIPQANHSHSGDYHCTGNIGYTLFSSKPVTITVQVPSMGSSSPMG

[3] = molecular target: T3, FcγRIIb extracellular domain with C-terminal His tag (human, UniProt P31994 43-217); test: as above
T3 construct: extracellular domain
T3 sequence (looked up): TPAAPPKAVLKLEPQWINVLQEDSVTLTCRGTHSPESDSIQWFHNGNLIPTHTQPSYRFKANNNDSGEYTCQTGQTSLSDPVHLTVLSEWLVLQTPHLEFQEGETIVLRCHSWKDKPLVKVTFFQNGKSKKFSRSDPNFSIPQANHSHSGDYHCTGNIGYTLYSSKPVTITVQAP

[4] = molecular target: T3, FcγRIIb extracellular domain with …; test: SPR; KD for FcγRIIaR divided by KD for FcγRIIb
[5] = molecular target: T3, FcγRIIb extracellular domain with …; test: SPR; KD for FcγRIIaH divided by KD for FcγRIIb

Row | Binder | Kd [1] [µM] | KD(IIaR) OF PARENT POLYPEPTIDE/KD(IIaR) OF ALTERED POLYPEPTIDE [2] | KD(IIb) OF PARENT POLYPEPTIDE/KD(IIb) OF ALTERED POLYPEPTIDE [3] | KD(IIaR)/KD(IIb) [4] | KD(IIaH)/KD(IIb) [5]
1 | IL6R-BP186/IL6R-L (antibody, human IgG1, kappa, name in EU numbering, EU numbering; copies: 2 + 2) heavy: QVQLQESGPGLVKPSETLSLTCAVSGHSISHDHAWSWVRQPPGEGLEWIGFISYSGITNYNPSLQGRVTISRDNSKNTLYLQMNSLRAEDTAVYYCARSLARTTAMDYWGEGTLVTVSSASTKGPSVFPLAPSSKSTSGGTAALGCLVKDYFPEPVTVSWNSGALTSGVHTFPAVLQSSGLYSLSSVVTVPSSSLGTQTYICNVNHKPSNTKVDKKVEPKSCDKTHTCPPCPAPDYLGDDSVFLFPPKPKDTLMISRTPEVTCVVVDVSHEDGEVKFNWYVDGVEVHNAKTKPREEQDNSTYRVVSVLTVLHQDWLNGKEYKCKVSNAALPKPIEKTISKAKGQPREPQVYTLPPSRDELTKNQVSLTCLVKGFYPSDIAVEWESNGQPENNYKTTPPVLDSDGSFFLYSKLTVDKSRWQQGNVFSCSVMHEALHNHYTQESLSLSP light: not shown | 93 |  |  |  | 
2 | IL6R-BP503/IL6R-L (antibody, human IgG1, kappa, name in EU numbering, copies: 2 + 2) heavy: QVQLQESGPGLVKPSETLSLTCAVSGHSISHDHAWSWVRQPPGEGLEWIGFISYSGITNYNPSLQGRVTISRDNSKNTLYLQMNSLRAEDTAVYYCARSLARTTAMDYWGEGTLVTVSSASTKGPSVFPLAPSSKSTSGGTAALGCLVKDYFPEPVTVSWNSGALTSGVHTFPAVLQSSGLYSLSSVVTVPSSSLGTQTYICNVNHKPSNTKVDKKVEPKSCDKTHTCPPCPAPDLLGDDSVFLFPPKPKDTLMISRTPEVTCVVIDVAEEDGEVKFNWYVDGVEVHNAKTKPREEQDNSTYRVVSVLTVLHQDWLNGKEYKCKVSNKGLPRPIEKTISKAKGQPREPQVYTLPPSRDELTKNQVSLTCLVKGFYPSDIAVEWESNGQPENNYKTTPMVLDSDGSFFLYSKLTVDKSRWQQGNVFSCSVMHEALHNHYTQESLSLSP light: not shown |  | 19.4 | 1810 | 33.2 | 503
3 | IL6R-BP201/IL6R-L (antibody, human IgG1, kappa, name in EU numbering, EU numbering; copies: 2 + 2) heavy: QVQLQESGPGLVKPSETLSLTCAVSGHSISHDHAWSWVRQPPGEGLEWIGFISYSGITNYNPSLQGRVTISRDNSKNTLYLQMNSLRAEDTAVYYCARSLARTTAMDYWGEGTLVTVSSASTKGPSVFPLAPSSKSTSGGTAALGCLVKDYFPEPVTVSWNSGALTSGVHTFPAVLQSSGLYSLSSVVTVPSSSLGTQTYICNVNHKPSNTKVDKKVEPKSCDKTHTCPPCPAPDLLGDDSVFLFPPKPKDTLMISRTPEVTCVVVDVSHEDGEVKFNWYVDGVEVHNAKTKPREEQYNSTYRVVSVLTVLHQDWLNGKEYKCKVSNKALPRPIEKTISKAKGQPREPQVYTLPPSRDELTKNQVSLTCLVKGFYPSDIAVEWESNGQPENNYKTTPPVLDSDGSFFLYSKLTVDKSRWQQGNVFSCSVMHEALHNHYTQESLSLSP light: not shown | 69 |  |  |  | 
4 | IL6R-BP214/IL6R-L (antibody, human IgG1, kappa, name in EU numbering, EU numbering; copies: 2 + 2) heavy: QVQLQESGPGLVKPSETLSLTCAVSGHSISHDHAWSWVRQPPGEGLEWIGFISYSGITNYNPSLQGRVTISRDNSKNTLYLQMNSLRAEDTAVYYCARSLARTTAMDYWGEGTLVTVSSASTKGPSVFPLAPSSKSTSGGTAALGCLVKDYFPEPVTVSWNSGALTSGVHTFPAVLQSSGLYSLSSVVTVPSSSLGTQTYICNVNHKPSNTKVDKKVEPKSCDKTHTCPPCPAPDYLGDDSVFLFPPKPKDTLMISRTPEVTCVVVDVSHEDPEVKFNWYVDGVEVHNAKTKPREEQDNSTYRVVSVLTVLHQDWLNGKEYKCKVSNDALPKPIEKTISKAKGQPREPQVYTLPPSRDELTKNQVSLTCLVKGFYPSDIAVEWESNGQPENNYKTTPPVLDSDGSFFLYSKLTVDKSRWQQGNVFSCSVMHEALHNHYTQESLSLSP light: not shown | 92 |  |  |  | 
5 | IL6R-BP505/IL6R-L (antibody, human IgG1, kappa, name in EU numbering, copies: 2 + 2) heavy: QVQLQESGPGLVKPSETLSLTCAVSGHSISHDHAWSWVRQPPGEGLEWIGFISYSGITNYNPSLQGRVTISRDNSKNTLYLQMNSLRAEDTAVYYCARSLARTTAMDYWGEGTLVTVSSASTKGPSVFPLAPSSKSTSGGTAALGCLVKDYFPEPVTVSWNSGALTSGVHTFPAVLQSSGLYSLSSVVTVPSSSLGTQTYICNVNHKPSNTKVDKKVEPKSCDKTHTCPPCPAPDLLGDDSVFLFPPKPKDTLMISRTPEVTCVVIDVAEEDGDVKFNWYVDGVEVHNAKTKPREEQYNSTYRVVSVLTVLHQDWLNGKEYKCKVSNKALPAPIEKTISKAKGQPREPQVYTLPPSRDELTKNQVSLTCLVKGFYPSDIAVEWESNGQPENNYKTTPPVLDSDGSFFLYSKLTVDKSRWQQGNVFSCSVMHEALHNHYTQESLSLSP light: not shown |  | 2.6 | 145 | 20 | 514
6 | IL6R-BP194/IL6R-L (antibody, human IgG1, kappa, name in EU numbering, EU numbering; copies: 2 + 2) heavy: QVQLQESGPGLVKPSETLSLTCAVSGHSISHDHAWSWVRQPPGEGLEWIGFISYSGITNYNPSLQGRVTISRDNSKNTLYLQMNSLRAEDTAVYYCARSLARTTAMDYWGEGTLVTVSSASTKGPSVFPLAPSSKSTSGGTAALGCLVKDYFPEPVTVSWNSGALTSGVHTFPAVLQSSGLYSLSSVVTVPSSSLGTQTYICNVNHKPSNTKVDKKVEPKSCDKTHTCPPCPAPDYLGDDSVFLFPPKPKDTLMISRTPEVTCVVVDVSDEDGEVKFNWYVDGVEVHNAKTKPREEQYNSTYRVVSVLTVLHQDWLNGKEYKCKVSNAALPKPIEKTISKAKGQPREPQVYTLPPSRDELTKNQVSLTCLVKGFYPSDIAVEWESNGQPENNYKTTPPVLDSDGSFFLYSKLTVDKSRWQQGNVFSCSVMHEALHNHYTQESLSLSP light: not shown | 85 |  |  |  | 

Further lines, results first:

Row | Kd [1] [µM] | KD(IIaR) OF PARENT POLYPEPTIDE/KD(IIaR) OF ALTERED POLYPEPTIDE [2] | KD(IIb) OF PARENT POLYPEPTIDE/KD(IIb) OF ALTERED POLYPEPTIDE [3] | KD(IIaR)/KD(IIb) [4] | KD(IIaH)/KD(IIb) [5] | Binder
7 |  | 6.3 | 891 | 50.6 | 1240 | IL6R-BP511/IL6R-L (antibody, human IgG1, kappa, name in EU numbering, copies: 2 + 2) heavy: QVQLQESGPGLVKPSETLSLTCAVSGHSISHDHAWSWVRQPPGEGLEWIGFISYSGITNYNPSLQGRVTISRDNSKNTLYLQMNSLRAEDTAVYYCARSLARTTAMDYWGEGTLVTVSSASTKGPSVFPLAPSSKSTSGGTAALGCLVKDYFPEPVTVSWNSGALTSGVHTFPAVLQSSGLYSLSSVVTVPSSSLGTQTYICNVNHKPSNTKVDKKVEPKSCDKTHTCPPCPAPELLGDDSVFLFPPKPKDTLMISRTPEVTCVVIDVAEEDGPVKFNWYVDGVEVHNAKTKPREEQDNSTYRVVSVLTVLHQDWLNGKEYKCKVSNKALPRPIEKTISKAKGQPREPQVYTLPPSRDELTKNQVSLTCLVKGFYPSDIAVEWESNGQPENNYKTTPPVLDSDGSFFLYSKLTVDKSRWQQGNVFSCSVMHEALHNHYTQESLSLSP light: not shown
8 |  | 2.1 | 174 | 29.2 | 444 | IL6R-BP509/IL6R-L (antibody, human IgG1, kappa, name in EU numbering, copies: 2 + 2) heavy: QVQLQESGPGLVKPSETLSLTCAVSGHSISHDHAWSWVRQPPGEGLEWIGFISYSGITNYNPSLQGRVTISRDNSKNTLYLQMNSLRAEDTAVYYCARSLARTTAMDYWGEGTLVTVSSASTKGPSVFPLAPSSKSTSGGTAALGCLVKDYFPEPVTVSWNSGALTSGVHTFPAVLQSSGLYSLSSVVTVPSSSLGTQTYICNVNHKPSNTKVDKKVEPKSCDKTHTCPPCPAPDLLGDDSVFLFPPKPKDTLMISRTPEVTCVVIDVAEEDGDVKFNWYVDGVEVHNAKTKPREEQDNSTYRVVSVLTVLHQDWLNGKEYKCKVSNKALPAPIEKTISKAKGQPREPQVYTLPPSRDELTKNQVSLTCLVKGFYPSDIAVEWESNGQPENNYKTTPPVLDSDGSFFLYSKLTVDKSRWQQGNVFSCSVMHEALHNHYTQESLSLSP light: not shown
9 |  | 2 | 149 | 26 | 962 | IL6R-BP508/IL6R-L (antibody, human IgG1, kappa, name in EU numbering, copies: 2 + 2) heavy: QVQLQESGPGLVKPSETLSLTCAVSGHSISHDHAWSWVRQPPGEGLEWIGFISYSGITNYNPSLQGRVTISRDNSKNTLYLQMNSLRAEDTAVYYCARSLARTTAMDYWGEGTLVTVSSASTKGPSVFPLAPSSKSTSGGTAALGCLVKDYFPEPVTVSWNSGALTSGVHTFPAVLQSSGLYSLSSVVTVPSSSLGTQTYICNVNHKPSNTKVDKKVEPKSCDKTHTCPPCPAPDLLGDDSVFLFPPKPKDTLMISRTPEVTCVVIDVAEEDGPVKFNWYVDGVEVHNAKTKPREEQDNSTYRVVSVLTVLHQDWLNGKEYKCKVSNKALPAPIEKTISKAKGQPREPQVYTLPPSRDELTKNQVSLTCLVKGFYPSDIAVEWESNGQPENNYKTTPPVLDSDGSFFLYSKLTVDKSRWQQGNVFSCSVMHEALHNHYTQESLSLSP light: not shown
